According to patent US20220146515A1 (XIAMEN INNODX BIOTECH, published 2022):

Columns and labels:
Test in all cases: competition ELISA, antibody preincubated with target, AMH-coated plate
[1] = target: T1, human AMH36-47 short peptide, mutation site 39 (human)
T1 peptide: GLIAREDLDWPP
Method: (§1) 1. AMH antigen was diluted with carbonic acid buffer (20 mmol/L CB, pH 9.6) and then coated on a polyvinyl chloride plate. In the pretreatment, the antibody purified by the protein A column and the synthesized short peptides with different human AMH36-47 amino acid mutations were subjected to proportion incubation (100 ng/ml antibody: 50 ug/ml truncated antigen) for 30 minutes, that were test samples; the control sample was (100 ng/ml antibody: PBS) and incubated for 30 minutes, and then the test samples after incubation and the control sample were added to AMH antigen plate and incubated for 30 minutes, the plate was washed for 5 times, added with GAM-HRP (1/5000 dilution) and incubated for 30 minutes, the plate was washed for 5 times, and the substrate was added and incubated for 15 minutes. The values under wavelength of 450/620 were read by microplate reader, and the detected OD values were finally calculated and analyzed. The calculation formula was: (control sample OD value−test sample OD value)/control sample OD value, and the criterion for determination was as follows: a value lower than 90% indicated the corresponding amino acid was a key amino acid, and the mutation has a great impact on the reaction of antibody.

[2] = target: T2, human AMH36-47 short peptide, mutation site 41 (human)
T2 peptide: GLIFRADLDWPP
Method: as §1

[3] = target: T3, human AMH36-47 short peptide, mutation site 36 (human)
T3 peptide: ALIFREDLDWPP
Method: as §1

[4] = target: T4, human AMH36-47 short peptide, mutation site 47 (human)
T4 peptide: GLIFREDLDWPA
Method: as §1

[5] = target: T5, human AMH36-47 short peptide, mutation site 44 (human)
T5 peptide: GLIFREDLAWPP
Method: as §1

[6] = target: T6, human AMH36-47 short peptide, mutation site 42 (human)
T6 peptide: GLIFREALDWPP
Method: as §1

[7] = target: T7, human AMH36-47 short peptide, mutation site 40 (human)
T7 peptide: GLIFAEDLDWPP
Method: as §1

[8] = target: T8, human AMH36-47 short peptide, mutation site 38 (human)
T8 peptide: GLAFREDLDWPP
Method: as §1

[9] = target: T9, human AMH36-47 short peptide, mutation site 45 (human)
T9 peptide: GLIFREDLDAPP
Method: as §1

[10] = target: T10, human AMH36-47 short peptide, mutation site 43 (human)
T10 peptide: GLIFREDADWPP
Method: as §1

[11] = target: T11, human AMH36-47 short peptide, mutation site 37 (human)
T11 peptide: GAIFREDLDWPP
Method: as §1

[12] = target: T12, human AMH36-47 short peptide, mutation site 46 (human)
T12 peptide: GLIFREDLDWAP
Method: as §1

percent inhibition [1]: 9%
percent inhibition [2]: 7%
percent inhibition [3]: 100%
percent inhibition [4]: 99%
percent inhibition [5]: 64%
percent inhibition [6]: 98%
percent inhibition [7]: 88%
percent inhibition [8]: 96%
percent inhibition [9]: 100%
percent inhibition [10]: 94%
percent inhibition [11]: 97%
percent inhibition [12]: 99%
B1: monoclonal antibody C9F2-2 (antibody, V domains shown)
VH: EVQLVESGGGLVKPGGSLKLSCAASGFAFSTYDMSWVRQTPEKRLEWVAYISPGGGATYYPDTVKGRFTISRDNAKNTLYLQMTSLKSEDTAMYYCAGRRDYYGMDYWGQGTSVTVSS
VL: DVVMTQTPLSLPVSLGDQASISCRSSQSLVHSNGNTYLHWYLQKPGQSPKLLIYKVSNRFSGVPDRFSGSGSGTDFTLKISRVEAEDLGVYFCSQSTHVPWTFGGGTKLEIK
notes: Mouse hybridoma antibody purified from ascites; the tie is indirect; also called hybridoma CCTCC NO: C2018183
